Data published in the nanobody polyreactivity screen of Harvey et al. (2022).

Test: yeast display, Sf9 membrane polyspecificity reagent, FACS + sequencing; frameworks hold sequencing errors
Summary of the method: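 A nanobody's polyreactivity label depends on the gate it was sorted from. Yeast display cells were stained with 10% biotinylated, detergent-solubilized Sf9 membrane reagent for 1 hour at 4 °C, enriched on streptavidin microbeads and sorted by FACS. The low and high (top ~1%) gates were set on anti-HA fluorescence for expression and streptavidin fluorescence for reagent binding.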

## QVHLVESGGGLVQAGGSLRLSCAASGFILPYYAMGWYRQAPGKERELVAAISRSGGGTYYADSVKGRFTISRDNAKNTVYLQMNSLKPEDTAVYYCAADYSAYEYEYWGQGTQVTVSS
  polyreactivity (PSR sort gate): high polyreactivity

## QVHLVESGGGLVQAGGSLRLSCAASGFPFGSYAMGWDRPAPGKERELVSGISRGGSTNYADSVKGRFTISRDNAKNTVYLQMNSLKPEDTAVYYCAARAVFVADTGATPAGYDYWGQGTQVTVSS
  polyreactivity (PSR sort gate): low polyreactivity

## QVHLVESGGGLVQAGGSLRLSCAASGFTFDYYTMGWYRPAPGKERELVAAITSSAGSTDYADSVKGRFTISRDNAKNTVYLQMNSLKPEDTAVYYCNADFLYGTYDYWGQGTQVTVSS
  polyreactivity (PSR sort gate): low polyreactivity

## QVHLVESGGGLVQAGGSLRLSCAASGFTFIRNGMGSYRQAPGKERELVAAINSRGGNTYYADSVKGRFTISRDNAKNTVYLQMNSLKPEDTAVYYCNRVVQRWSTQYGYWGQGTQVTVSS
  polyreactivity (PSR sort gate): high polyreactivity

## QVHLVESGGGLVQAGGSLRLSCAASGFTFRRYAMGWYRQAPGKERELVAAISYGGGRTYYADSVKGRFTISRDNAKNTVYLQMNSLKPEDTAVYYCAADVQSRYVGEGDYWGQGTQVTVSS
  polyreactivity (PSR sort gate): high polyreactivity

## QVHLVESGGGLVQAGGSLRLSCAASGFTFRYYGMGRYRQAPGKERELVAAISRGGSTNYADSVKGRFTISRDNAKNTVYLQMTSLKPEDTAVYYFAKAGLTYRALRYYWGQGTQVTVSS
  polyreactivity (PSR sort gate): high polyreactivity

## QVHLVESGGGLVQAGGSLRLSCAASGFTFSTYTMGWYRQSPGKERELVAAIRRSGDSTYYADSVKGRFTISRDNAKNTVYLQMNSLKPVDTAVYYCNAVLYRFERFDYWGQGTQVTVSS
  polyreactivity (PSR sort gate): high polyreactivity

## QVHLVESGGGLVQAGGSLRLSCAASGFTFVFYTMGWYRPAPGKERELVAAISHTGDSTYYADSVKGRFTISRDNAKNTVYFQMNSLKPEDTAVYYCATDLYTADPDPSPTYKFEYWGQGTQVTVSS
  polyreactivity (PSR sort gate): low polyreactivity

## QVHLVESGGGLVQAGGSLRLSCAASGFTFYKYVMGWYRQAPGKERELVAAITTSGGSTYYADSVKGRFTISRDNAKNTVYLQMNSLKPEDTAVYYCNARSLHTSEGDYWGQGTQVTVSS
  polyreactivity (PSR sort gate): low polyreactivity

## QVHLVESGGGLVQAGGSLRLSCAASGFTFYSYAMGWYRPPPGKEREFVAAITIGGGSTNYADSVKGRFTISRDIAKNTVYLQMNSLKPEDTAVYYCNVDYTLHFGYWGQGTQVTVSS
  polyreactivity (PSR sort gate): low polyreactivity

## QVHLVESGGGLVQAGGSLRLSCAASGFTIDYYAMAWYRQAPGKERELDAAISRAGSTNYADSVKGRFTISRDNAKNTVYLQMNSLKPEDTAVYYCNKGYHSWSRLSQFGWSYDYWGQGTQVTVSS
  polyreactivity (PSR sort gate): high polyreactivity

## QVHLVESGGGLVQAGGSLRLSCAASGGIFYINSMGWYRQAPGKERELVAAITGGASTYYADSVKGRFTISRDNAKNTVYLQMNSLNPEDTAVYYCAARPSSRRVYPAYLYGYWGQGTQVSVSS
  polyreactivity (PSR sort gate): high polyreactivity

## QVHLVESGGGLVQAGGSLRLSCAASGGTIAFNGMGWYRQAPGKDRELVAAITWRSGSTYYADSVKGRFTISRDNPKNPVYLQMNSLKPDDTAVYYCNAARAVYTQKRFDSWGQGTQVTVSS
  polyreactivity (PSR sort gate): high polyreactivity

## QVHLVESGGGLVQAGGSLRLSCAASGIIFRRYAMGWYRQAPGKERELVAAISSRGGSTYYADSVKRRFTISRDNAKNTVYLQMNSLKPEDTAVYYCAKGFSGTGGSGDFGYWGQGTQVTVSS
  polyreactivity (PSR sort gate): high polyreactivity

## QVHLVESGGGLVQAGGSLRLSCAASGITFEGYAMGWYRQAPGKERELVAAIRSSGTSTYYADSVKGRFTISRDNAKNTVYLQMNSLKPEDTAVYYCNRARSSSRYDYWGQGTQVTVSS
  polyreactivity (PSR sort gate): low polyreactivity

## QVHLVESGGGLVQAGGSLRLSCAASGITFLKYAMGWYRQAPGKERELVARITSGGRTYYADSVKGRFTISRDNAKNTVYLLMNSLKPEDTAVYYCNAVKSYASLYAGFYYWGQGTHVTVSS
  polyreactivity (PSR sort gate): high polyreactivity

## QVHLVESGGGLVQAGGSLRLSCAASGITFYRYAMGWYRLAPGTERELVAAISSSGGSTYYADSVKGRFTISRDNAKNTVYLQMNSLKPEDTAVYYCAAQYNVPRDKYYFWGQGTQVTVSS
  polyreactivity (PSR sort gate): high polyreactivity
